We go through 2 molecules from patent publication US20040072758A1.

The IC50 is the concentration needed to halve the response being measured. Read a high IC50 as lower potency.

The target in assay [1] is T1, rat neurotensin type 2 receptor (rat), Q63384.
T1 chain: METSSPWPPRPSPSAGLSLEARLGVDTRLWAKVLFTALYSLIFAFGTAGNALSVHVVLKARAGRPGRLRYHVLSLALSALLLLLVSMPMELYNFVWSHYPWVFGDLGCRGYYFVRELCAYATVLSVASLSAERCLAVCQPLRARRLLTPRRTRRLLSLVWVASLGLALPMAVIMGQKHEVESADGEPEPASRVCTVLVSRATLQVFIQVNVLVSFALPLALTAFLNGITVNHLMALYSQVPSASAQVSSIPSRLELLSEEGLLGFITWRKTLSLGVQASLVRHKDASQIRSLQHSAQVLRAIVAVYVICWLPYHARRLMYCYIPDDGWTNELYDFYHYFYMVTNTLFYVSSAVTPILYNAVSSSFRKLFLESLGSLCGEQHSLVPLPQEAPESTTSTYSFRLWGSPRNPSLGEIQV

Assay [2] has as its target T2, mouse neurotensin type 3 receptor (solubilized) (mouse), Q6PHU5.
T2 chain: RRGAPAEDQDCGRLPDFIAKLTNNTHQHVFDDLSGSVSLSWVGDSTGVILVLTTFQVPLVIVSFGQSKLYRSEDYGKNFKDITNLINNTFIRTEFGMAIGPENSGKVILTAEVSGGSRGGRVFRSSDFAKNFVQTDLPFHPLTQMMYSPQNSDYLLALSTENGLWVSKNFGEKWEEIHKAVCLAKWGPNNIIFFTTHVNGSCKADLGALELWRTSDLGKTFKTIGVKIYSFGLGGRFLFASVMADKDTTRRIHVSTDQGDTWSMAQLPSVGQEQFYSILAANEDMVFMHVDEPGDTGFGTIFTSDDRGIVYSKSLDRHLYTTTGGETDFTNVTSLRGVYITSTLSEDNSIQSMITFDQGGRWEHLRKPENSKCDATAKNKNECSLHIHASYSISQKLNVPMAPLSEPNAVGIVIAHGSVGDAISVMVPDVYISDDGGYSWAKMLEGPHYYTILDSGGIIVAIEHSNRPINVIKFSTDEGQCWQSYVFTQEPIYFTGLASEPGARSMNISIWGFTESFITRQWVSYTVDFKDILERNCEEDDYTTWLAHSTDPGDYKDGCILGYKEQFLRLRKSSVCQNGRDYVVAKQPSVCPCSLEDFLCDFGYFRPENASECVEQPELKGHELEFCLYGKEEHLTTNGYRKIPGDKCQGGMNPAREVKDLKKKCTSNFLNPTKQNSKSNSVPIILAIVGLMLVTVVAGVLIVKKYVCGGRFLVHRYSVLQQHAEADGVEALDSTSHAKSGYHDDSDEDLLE

The target of assay [3] is human neurotensin type 1 receptor (human), P30989.
Assay [4] deals with T3, rat neurotensin type 1 receptor (rat), P20789.
T3 chain: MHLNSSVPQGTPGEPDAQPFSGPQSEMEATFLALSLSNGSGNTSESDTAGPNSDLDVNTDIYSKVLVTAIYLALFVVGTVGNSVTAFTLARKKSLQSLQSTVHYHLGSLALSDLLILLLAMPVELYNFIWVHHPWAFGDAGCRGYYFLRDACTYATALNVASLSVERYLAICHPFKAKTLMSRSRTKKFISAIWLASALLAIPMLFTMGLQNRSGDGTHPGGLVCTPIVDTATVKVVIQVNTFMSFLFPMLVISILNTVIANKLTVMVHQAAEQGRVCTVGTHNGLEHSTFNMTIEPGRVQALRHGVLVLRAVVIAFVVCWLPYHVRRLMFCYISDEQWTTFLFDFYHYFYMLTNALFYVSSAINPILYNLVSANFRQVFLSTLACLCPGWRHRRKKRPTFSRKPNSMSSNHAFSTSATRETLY

For assay [5], the target named is human neurotensin type 1 receptor (human), P30989. Briefly: competition radioligand binding, reference neurotensin1-13.

human neurotensin type 1 receptor (human), P30989, sequence (P30989 whole entry): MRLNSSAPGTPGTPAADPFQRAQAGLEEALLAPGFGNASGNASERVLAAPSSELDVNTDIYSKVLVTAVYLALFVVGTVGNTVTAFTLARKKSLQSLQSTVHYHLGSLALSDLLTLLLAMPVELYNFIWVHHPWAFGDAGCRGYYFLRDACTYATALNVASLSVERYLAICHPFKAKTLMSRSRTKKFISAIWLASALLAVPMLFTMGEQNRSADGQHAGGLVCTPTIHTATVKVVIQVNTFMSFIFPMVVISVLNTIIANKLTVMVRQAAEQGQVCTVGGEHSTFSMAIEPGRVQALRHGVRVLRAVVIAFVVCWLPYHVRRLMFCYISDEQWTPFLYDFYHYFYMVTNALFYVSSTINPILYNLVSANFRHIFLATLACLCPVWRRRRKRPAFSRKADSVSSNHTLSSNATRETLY

QSEEGGSNATKKPYIL (modifications not checked) [contulakin-G (synthetic glycosylated 16-amino acid peptide, Gal(beta1->3)GalNAc(alpha1->) on Thr10)]: the IC50 was 730 nM in assay [1], 250 nM in assay [2], 960 nM in assay [3] and 524 nM in assay [4].
In the case of QSEEGGSNATKKPYIL (modifications not checked) [non-glycosylated Thr10-contulakin-G], the IC50 in assay [1] was found to be 170 nM; in assay [2] it was 71 nM; in assay [3], 23 nM; in assay [4] it was 79 nM. In addition, the fold lower affinity than Neurotensin1-13 in assay [5] amounted to 10 fold.
